We go through two molecules from article PMC1636449 (Nucleic Acids Research, 2006).

Test [1] concerns the target T1, Bacillus stearothermophilus DnaB helicase (Bacillus stearothermophilus, UniProt Q9X4C9 1-454).
T1 sequence: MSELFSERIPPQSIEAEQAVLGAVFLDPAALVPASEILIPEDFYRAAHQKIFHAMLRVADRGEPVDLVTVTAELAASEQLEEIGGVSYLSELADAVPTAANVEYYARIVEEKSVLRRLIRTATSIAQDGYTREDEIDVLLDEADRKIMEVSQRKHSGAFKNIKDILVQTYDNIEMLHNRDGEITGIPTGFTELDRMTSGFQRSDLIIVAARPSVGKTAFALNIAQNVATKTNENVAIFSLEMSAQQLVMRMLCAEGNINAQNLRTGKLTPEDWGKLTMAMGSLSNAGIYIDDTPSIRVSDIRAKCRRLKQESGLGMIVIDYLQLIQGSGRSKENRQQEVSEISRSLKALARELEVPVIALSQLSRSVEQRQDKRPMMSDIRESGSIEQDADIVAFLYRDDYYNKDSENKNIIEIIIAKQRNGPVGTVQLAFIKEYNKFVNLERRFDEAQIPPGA
Put plainly: SPR. Background: In SPR one partner is held on a chip, and binding of the other changes the refractive index at the surface.

The target in test [2] is T1, Bacillus stearothermophilus DnaB …. Put plainly: SEC.

B1: Bacillus subtilis DnaI (wild type) (natural protein)
chain: MEPIGRSLQGVTGRPDFQKRLEQMKEKVMKDQDVQAFLKENEEVIDQKMIEKSLNKLYEYIEQSKNCSYCSEDENCNNLLEGYHPKLVVNGRSIDIEYYECPVKRKLDQQKKQQSLMKSMYIQQDLLGATFQQVDISDPSRLAMFQHVTDFLKSYNETGKGKGLYLYGKFGVGKTFMLAAIANELAEKEYSSMIVYVPEFVRELKNSLQDQTLEEKLNMVKTTPVLMLDDIGAESMTSWVRDEVIGTVLQHRMSQQLPTFFSSNFSPDELKHHFTYSQRGEKEEVKAARLMERILYLAAPIRLDGENRRHP
As for B1, in test [1], the “stoichiometry N” value was 1 DnaI per stearoDnaB subunit.

B2: B. subtilis DnaI C101A mutant (natural protein)
chain: MEPIGRSLQGVTGRPDFQKRLEQMKEKVMKDQDVQAFLKENEEVIDQKMIEKSLNKLYEYIEQSKNCSYCSEDENCNNLLEGYHPKLVVNGRSIDIEYYEAPVKRKLDQQKKQQSLMKSMYIQQDLLGATFQQVDISDPSRLAMFQHVTDFLKSYNETGKGKGLYLYGKFGVGKTFMLAAIANELAEKEYSSMIVYVPEFVRELKNSLQDQTLEEKLNMVKTTPVLMLDDIGAESMTSWVRDEVIGTVLQHRMSQQLPTFFSSNFSPDELKHHFTYSQRGEKEEVKAARLMERILYLAAPIRLDGENRRHP
For the molecule B2, in test [2], the binding result is given as “binds”.
